From PMC7357788, “Overlapping functions and protein-protein interactions of LRR-extensins in Arabidopsis” (PLoS Genetics, 2020)
“Also recorded” adds a separate entry of the source. Ends that are not written are not given here.

Columns and labels:
LRX1^ΔE = assay: Co-IP of LRX1^ΔE-HA with RALF1-FLAG; assay type: binding, Arabidopsis thaliana; conditions: Co-IP and immunoblotting, transient expression in N. benthamiana
Protocol: Here, we tested binding of RALF1 to LRX1.
For pulldown and Co-IP analysis of the different constructs indicated in the experiments DNA was infiltrated into Nicotiana benthamiana leaves, and after 48 hrs, the leaves were excised and ground in liquid nitrogen as described in [62]. Two hundred mg of tissue powder was re-suspended in 500 μL extraction buffer [200 mM Tris-HCl (pH 7.5), 150 mM NaCl, 1 mM PMSF, protease inhibitor and 0.5% Triton X-100]. The suspension was incubated on ice for 30 minutes and then centrifuged at 11,000 rpm for 20 minutes at 4°C. The supernatant (200 μL) was then incubated with 10 μL anti-HA (Thermo Scientific, 88837), or anti-FLAG magnetic beads overnight at 4°C on a rotating shaker. If RALF1 peptide was added, the peptide was diluted in such way that for every sample 1μL of peptide was added to the protein extracts. After incubation, the beads were washed five times with the wash buffer (extraction buffer containing 0.05% Triton X-100) and boiled in SDS-PAGE loading buffer for 15 minutes at 75°C. The immunoprecipitates were then run on an SDS-PAGE gel and transferred to nitrocellulose membrane to perform immunoblotting using the following antibodies: anti-FLAG M2 (Sigma-Aldrich, F3165), anti-GFP (Biolegend, 902601), anti-HA-HRP 3F10 (Roche, 12 013 819 001) and anti-mouse-HRP (Sigma Aldrich, A 4416). […]

LRX3, LRX4, and LRX5 = conditions: vegetative tissues; ref [40],[41]; cited from earlier work
Excerpt: LRX proteins were recently identified as high-affinity binding sites for RALF peptides, with the binding spectrum differing among the LRXs. […] Whether and how the binding of RALFs and FER to LRXs influences the interaction of these proteins remains to be investigated. It is also unknown to what extent the different LRXs are functionally similar and whether they share FER as a common interaction ...

FLS2-BAK1 = conditions: ref [17]; cited from earlier work
Excerpt: Different LRXs bind an overlapping but not identical array of RALF peptides, and the full binding spectrum of the different LRXs might be even broader. One reason for the distinct RALF binding spectrum of LRXs is based on their expression pattern. […] It can be speculated that the diverse affinities of RALFs and LRXs contribute to the specificities of the plant’s response to different RALF peptides that have distinct biological activities [[17],[18],[19],[20],[26 ...

FER^ECD [1] = assay: Co-IP of LRX^ΔE with FER^ECD-Citrine; assay type: binding, Arabidopsis thaliana; conditions: proteins expressed in N. benthamiana
Excerpt: The root hair-localized LRX1 is so far the best characterized LRX protein and the lrx1 root hair mutant represents a convenient genetic system for analyses of LRX protein function. […] To this end, constructs encoding LRX1^ΔE-FLAG and the extracellular domain of FER fused to citrine (FER^ECD-Citrine) under the 35S promoter were expressed in tobacco for Co-IP experiments. […] The Y2H experiments were extended to other LRXs of vegetative tissues, namely the LRR domains of LRX2, LRX3, LRX4, and LRX5.
For pulldown and Co-IP analysis of the different constructs indicated in the experiments DNA was infiltrated into Nicotiana benthamiana leaves, and after 48 hrs, the leaves were excised and ground in liquid nitrogen as described in [62]. Two hundred mg of tissue powder was re-suspended in 500 μL extraction buffer [200 mM Tris-HCl (pH 7.5), 150 mM NaCl, 1 mM PMSF, protease inhibitor and 0.5% Triton X-100]. The suspension was incubated on ice for 30 minutes and then centrifuged at 11,000 rpm for 20 minutes at 4°C. The supernatant (200 μL) was then incubated with 10 μL anti-HA (Thermo Scientific, 88837), or anti-FLAG magnetic beads overnight at 4°C on a rotating shaker. If RALF1 peptide was added, the peptide was diluted in such way that for every sample 1μL of peptide was added to the protein extracts. […]

FER^ECD [2] = assay: Yeast-two-hybrid LRX LRR domain-FER^ECD; assay type: binding, Arabidopsis thaliana; conditions: Y2H, yeast strain PJ69-4A, LRR domains, -Trp, Leu, His, Ade drop-out medium containing 5 mM 3-AT
Excerpt: The BD-LRX4 and AD-FER^ECD constructs for the Yeast-two-hybrid experiment were cloned as previously described, where NtermFER equals AD-FER^ECD and LRR4 equals BD-LRX4. For the BD-LRX1/2/3/5 constructs, the coding sequence of the LRR domain of the LRXs was amplified using primers (S3 Table) to introduce a BamHI and a XhoI site at the 5’ and 3’ end of the PCR fragments, respectively. These were cloned into pJET1.2 (Thermo Scientific) and correct clones were cut with BamHI and XhoI and ligated into pGBKT7 cut with BamHI and SalI. The AD-RALF1 construct was cloned into pJET1.2 (Thermo Scientific) by amplification of the coding sequence with the primers y2h_RALF1_F and y2h_RALF1_R. A correct clone was cut with EcoRI and XmaI and ligated into pGADT7 cut with EcoRI and XmaI.
Transformation of the yeast strain PJ69-4A [63] was done following standard procedures and quadruple drop-out medium lacking Leu, Trp, His, and Ade were used to screen for positive interactions after 4 days incubation at 30°C. Three different colonies containing both vectors were mixed and plated in triplicates on quadruple drop-out medium.
Supplementary file pgen.1008847.s001.pdf: S1 Fig Interaction of LRXs and FER in yeast-two-hybrid assays. […]

[3] = target: LRX4^ΔE-FLAG (Arabidopsis thaliana) (UniProt Q9LHF1); assay: BLI; BLITZ; LRX^ΔE-FLAG mixed with anti-FLAG M2 antibody and loaded onto a protein A biosensor; synthetic RALF1 peptide added at 0.2-200 μM; association 120 s, dissociation 120 s; sample diluent buffer (Pall FortéBio)
[4] = target: LRX3^ΔE-FLAG (Arabidopsis thaliana) (UniProt Q9T0K5); assay: as above
[5] = target: LRX1^ΔE-FLAG (Arabidopsis thaliana); assay: as above
[6] = target: LRX5^ΔE-FLAG (Arabidopsis thaliana) (UniProt Q9SN46); assay: as above
Sequence of LRX5^ΔE-FLAG (Arabidopsis thaliana) (Q9SN46 32-857, stated change not applied): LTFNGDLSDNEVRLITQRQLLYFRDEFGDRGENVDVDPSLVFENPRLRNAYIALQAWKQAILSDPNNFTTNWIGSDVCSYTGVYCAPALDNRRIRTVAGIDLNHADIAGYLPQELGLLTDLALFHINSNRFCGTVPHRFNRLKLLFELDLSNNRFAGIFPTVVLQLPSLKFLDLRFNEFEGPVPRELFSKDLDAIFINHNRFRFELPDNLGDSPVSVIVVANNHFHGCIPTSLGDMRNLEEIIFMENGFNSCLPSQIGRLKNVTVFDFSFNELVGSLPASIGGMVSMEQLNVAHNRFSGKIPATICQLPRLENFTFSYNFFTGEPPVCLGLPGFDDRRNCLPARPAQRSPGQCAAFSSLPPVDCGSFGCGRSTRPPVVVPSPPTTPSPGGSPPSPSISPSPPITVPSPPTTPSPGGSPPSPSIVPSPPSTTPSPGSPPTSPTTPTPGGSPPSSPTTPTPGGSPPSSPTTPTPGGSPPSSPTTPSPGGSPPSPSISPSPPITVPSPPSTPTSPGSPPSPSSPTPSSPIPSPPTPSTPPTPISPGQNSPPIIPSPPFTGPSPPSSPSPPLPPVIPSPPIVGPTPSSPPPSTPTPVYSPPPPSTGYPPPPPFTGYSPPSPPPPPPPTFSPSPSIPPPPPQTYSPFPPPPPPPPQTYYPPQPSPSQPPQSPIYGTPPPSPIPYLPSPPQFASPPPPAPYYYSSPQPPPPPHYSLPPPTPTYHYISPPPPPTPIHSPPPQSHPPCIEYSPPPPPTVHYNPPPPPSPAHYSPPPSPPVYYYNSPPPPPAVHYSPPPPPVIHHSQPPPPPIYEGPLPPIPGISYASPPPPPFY

Sequence of LRX4^ΔE-FLAG (Arabidopsis thaliana) (Q9LHF1 26-494, stated change not applied): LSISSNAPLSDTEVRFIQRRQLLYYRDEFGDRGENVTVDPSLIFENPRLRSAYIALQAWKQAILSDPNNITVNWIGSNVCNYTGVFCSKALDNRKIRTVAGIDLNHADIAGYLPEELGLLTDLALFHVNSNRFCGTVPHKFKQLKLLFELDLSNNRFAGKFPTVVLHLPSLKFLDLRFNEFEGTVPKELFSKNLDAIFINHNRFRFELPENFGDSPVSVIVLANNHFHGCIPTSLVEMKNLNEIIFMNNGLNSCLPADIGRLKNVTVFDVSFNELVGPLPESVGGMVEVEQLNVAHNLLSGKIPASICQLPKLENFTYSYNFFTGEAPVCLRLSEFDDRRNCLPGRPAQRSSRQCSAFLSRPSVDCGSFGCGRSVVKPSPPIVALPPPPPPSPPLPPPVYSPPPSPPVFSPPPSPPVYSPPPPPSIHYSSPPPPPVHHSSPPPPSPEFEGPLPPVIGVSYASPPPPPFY

Q: With “RALF1-FLAG: FLAG-tagged RALF1 transiently expressed in N. benthamiana (ATTKYISYQSLKRNSVPCSRRGASYYNCQNGAQANPYSRGCSKIARCRS; ends and bridges not checked; also: FLAG tag, site not given here; UniProt Q9SRY3 72-120, looked up)” as the molecule, how does the “interaction with LRX1^ΔE” value (LRX1^ΔE) read?
A: Its value is “showed interaction of the two proteins”.

Q: With “RALF23: RALF peptide reported to be bound by LRX3, LRX4, and LRX5 (ATRRYISYGALRRNTIPCSRRGASYYNCRRGAQANPYSRGCSAITRCRRS; UniProt Q9LUS7 89-138, looked up)” as the molecule, how does the “binding to LRX3, LRX4, and LRX5” value (LRX3, LRX4, and LRX5) read?
A: The value was “reported to bind”.

Q: What about the “effect on scaffolding function of FER” value (FLS2-BAK1) of the same molecule?
A: The value was “inducing the dissociation of FLS2 from BAK1”.

B1: LRX1: LRR domain of LRX1 (BD-LRX1), gene At1g12040 (protein)
chain: MLFPPLRSLFLFTLLLSSVCFLQIKADHDDESDLGSDIKVDKRLKFENPKLRQAYIALQSWKKAIFSDPFNFTANWNGSDVCSYNGIYCAPSPSYPKTRVVAGIDLNHADMAGYLASELGLLSDLALFHINSNRFCGEVPLTFNRMKLLYELDLSNNRFVGKFPKVVLSLPSLKFLDLRYNEFEGKIPSKLFDRELDAIFLNHNRFRFGIPKNMGNSPVSALVLADNNLGGCIPGSIGQMGKTLNELILSNDNLTGCLPPQIGNLKKVTVFDITSNRLQGPLPSSVGNMKSLEELHVANNAFTGVIPPSICQLSNLENFTYSSNYFSGRPPICAASLLADIVVNGTMNCITGLARQRSDKQCSSLLARPVDCSKFGCYNIFSPPPPTFKMSPEVRTLPPPIYVYSSPPPPPSSKMSPTVRAYSPPPPPSSKMSPSVRAYSPPPPPYSKMSPSVRAYPPPPPPSPSPPPPYVYSSPPPPYVYSSPPPPPYVYSSPPPPPYVYSSPPPPYVYSSPPPPYVYSSPPPPPPSPPPPCPESSPPPPVVYYAPVTQSPPPPSPVYYPPVTQSPPPPSPVYYPPVTNSPPPPSPVYYPPVTYSPPPPSPVYYPQVTPSPPPPSPLYYPPVTPSPPPPSPVYYPPVTPSPPPPSPVYYPPVTPSPPPPSPVYYPSETQSPPPPTEYYYSPSQSPPPTKACKEGHPPQATPSYEPPPEYSYSSSPPPPSPTSYFPPMPSVSYDASPPPPPSYY
modifications: left off: Gal4 DNA-binding domain (from the vector pGBKT7), end not stated, kept
notes: LRR domain of LRX1 (BD-LRX1), gene At1g12040
Q: With B1 as the molecule, how does the “interaction with FER^ECD” value (FER^ECD [1]; listed as LRX1^ΔE) read?
A: Its value is “show interaction with FER^ECD”.

Q: What about the “interaction with FER^ECD” value (FER^ECD [2]) of the same molecule?
A: Its value is “confirmed in a yeast-two-hybrid (Y2H) experiment”.

Q: Which results are given for ATTKYISYQSLKRNSVPCSRRGASYYNCQNGAQANPYSRGCSKIARCRS [synthetic RALF1 peptide]?
A: Kd [3]: 5.5 nM; Kd [4]: 11000 nM; Kd [5]: 4.5 nM; Kd [6]: 3.5 nM

B2: LRX3^ΔE: LRX3 lacking the extensin domain (protein)
chain: LSISSDGGVLSDNEVRHIQRRQLLEFAERSVKITVDPSLNFENPRLRNAYIALQAWKQAILSDPNNFTSNWIGSNVCNYTGVFCSPALDNRKIRTVAGIDLNHADIAGYLPEELGLLSDLALFHVNSNRFCGTVPHRFNRLKLLFELDLSNNRFAGKFPTVVLQLPSLKFLDLRFNEFEGTVPKELFSKDLDAIFINHNRFRFELPENFGDSPVSVIVLANNRFHGCVPSSLVEMKNLNEIIFMNNGLNSCLPSDIGRLKNVTVFDVSFNELVGPLPESVGEMVSVEQLNVAHNMLSGKIPASICQLPKLENFTYSYNFFTGEAPVCLRLPEFDDRRNCLPGRPAQRSPGQCKAFLSRPPVNCGSFSCGRSVSPRPPVVTPLPPPSLPSPPPPAPIFSTPPTLTSPPPPSPPPPVYSPPPPPPPPPPVYSPPPPPPPPPPPPVYSPPPPPPPPPPPPPVYSPPPPSPPPPPPPVYSPPPPPPPPPPPPVYSPPPPPVYSSPPPPPSPAPTPVYCTRPPPPPPHSPPPPQFSPPPPEPYYYSSPPPPHSSPPPHSPPPPHSPPPPIYPYLSPPPPPTPVSSPPPTPVYSPPPPPPCIEPPPPPPCIEYSPPPPPPVVHYSSPPPPPVYYSSPPPPPVYYSSPPPPPPVHYSSPPPPEVHYHSPPPSPVHYSSPPPPPSAPCEESPPPAPVVHHSPPPPMVHHSPPPPVIHQSPPPPSPEYEGPLPPVIGVSYASPPPPPFY
modifications: left off: double FLAG, C-terminal, kept
notes: LRX3 lacking the extensin domain
Q: With B2 as the molecule, how does the “interaction with FER^ECD” value (FER^ECD [1]) read?
A: The value was “revealed interaction of the two proteins; also recorded: show interaction with FER^ECD”.

B3: LRX2: LRR domain of LRX2 (BD-LRX2), gene At1g62440 (protein)
chain: MLLFPSTSLRLFFFLFLLFSSCFLQIRGDDDDDDISDDNIKVDPSLKFENPSLRQAYIALQSWKQAIFSDPFNFTANWNGSDVCSYNGIFCAPSPSSPKTRVVAGIDLNHADMAGYLPRELGLLTDLALFHLNSNRFCGEVPLTFKHMKLLFELDLSNNRFVGKFPNVVLSLPSLKFLDLRYNEFEGSIPSKLFDKELDAIFLNHNRFMFGIPENMGNSPVSALVLADNDLGGCIPGSIGLMGKTLNEIILSNDNLTGCLPPQIGNLKNVTVFDISFNRLSGPLPSSIGNMKSLEQLNVANNRFTGVIPSSICQLSNLENFTYSSNFFTGDAPRCVALLGDNVVVNGSMNCIDGKEDQRSSKECSSPASRSVDCSKFGCNNFFSPPPPSFKMSPTVRVLPPPPPSSKMSPTFRATPPPPSSKMSPSFRATPPPPSSKMSPSFRATPPPPSSKMSPSVKAYPPPPPPPEYEPSPPPPSSEMSPSVRAYPPPPPLSPPPPSPPPPYIYSSPPPPSPSPPPPYIYSSPPPVVNCPPTTQSPPPPKYEQTPSPREYYPSPSPPYYQYTSSPPPPTYYATQSPPPPPPPTYYAVQSPPPPPPVYYPPVTASPPPPPVYYTPVIQSPPPPPVYYSPVTQSPPPPPPVYYPPVTQSPPPSPVYYPPVTQSPPPPPVYYLPVTQSPPPPSPVYYPPVAKSPPPPSPVYYPPVTQSPPPPSTPVEYHPPASPNQSPPPEYQSPPPKGCNDSPSNDHHYQTPTPPSLPPPYYEDTPLPPIRGVSYASPPPPSIPYY
modifications: left off: Gal4 DNA-binding domain (from the vector pGBKT7), end not stated, kept
notes: LRR domain of LRX2 (BD-LRX2), gene At1g62440
Q: Which “interaction with FER^ECD” value (FER^ECD [2]) does the source give for B3 here?
A: Its value is “showed interaction with FER^ECD”.
